# Patent US20140357844A1 (RINAT NEUROSCIENCE, published 2014)
# “And” between values parts separate entries of the source, which are not always exact repeats. Equal values may be shown once.
# Target: T1, Trop-2 on Trop-2 expressing tumor cells (human, UniProt P09758 27-323)
# T1 sequence: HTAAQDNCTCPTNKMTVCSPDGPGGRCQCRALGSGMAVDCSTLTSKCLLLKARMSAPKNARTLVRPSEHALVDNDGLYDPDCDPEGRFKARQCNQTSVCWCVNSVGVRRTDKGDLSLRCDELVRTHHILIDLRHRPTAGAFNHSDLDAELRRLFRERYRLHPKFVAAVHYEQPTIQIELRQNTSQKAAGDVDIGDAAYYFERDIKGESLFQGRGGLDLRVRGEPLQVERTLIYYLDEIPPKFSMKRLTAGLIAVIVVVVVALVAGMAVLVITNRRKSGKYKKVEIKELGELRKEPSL
# Assay: cell-based or functional assay
Binder,"Ab-IC50, cell viability (CellTiter-Glo, 96 h), BxPC3 (Trop-2++)","Ab-IC50, cell viability (CellTiter-Glo, 96 h), A431 (Trop-2+++)","Ab-IC50, cell viability (CellTiter-Glo, 96 h), CAPAN-2 (Trop-2+/++)","Ab-IC50, cell viability (CellTiter-Glo, 96 h), Colo205 (Trop-2+)"
"h7E6-SVG-TG1-vcMMAD (Aminocapryl-vcMMAD conjugate) (antibody, V domains shown) VH: QVQLQESGPGLVKPSETLSLTCTVSGGSISSYGVHWIRQPPGKGLEWIGVIWTSGVTDYNSALMGRVTISVDTSKNQFSLKLSSVTAADTAVYYCARDGDYDRYTMDYWGQGTLVTVSS VL: DIVMTQSPDSLAVSLGERATINCRASKSVSTSGYSYMHWYQQKPGQPPKLLIYLASNLESGVPDRFSGSGSGTDFTLTISSLQAEDVAVYYCQHSRELPYTFGQGTKLEIK",0.034 µg/mL and 0.229 nM,–,–,–
"h7E6-SVGN-TG1-vcMMAD (AcLys-vcMMAD conjugate) (antibody, V domains shown) VH: QVQLQESGPGLVKPSETLSLTCTVSGGSISSYGVHWIRQPPGKGLEWIGVIWTSGVTDYNSALMGRVTISVDTSKNQFSLKLSSVTAADTAVYYCARDGDYDRYTMDYWGQGTLVTVSS VL: DIVMTQSPDSLAVSLGERATINCRASKSVSTSNYSYMHWYQQKPGQPPKLLIYLASNLESGVPDRFSGSGSGTDFTLTISSLQAEDVAVYYCQHSRELPYTFGQGTKLEIK",0.051 µg/mL and 0.337 nM,0.023 µg/mL and 0.153 nM,2.01 µg/mL and 13.4 nM,0.083 µg/mL and 0.552 nM
"h7E6-SVGL-TG1-vcMMAD (AcLys-vcMMAD conjugate) (antibody, V domains shown) VH: QVQLQESGPGLVKPSETLSLTCTVSGGSISSYGVHWIRQPPGKGLEWIGVIWTSGVTDYNSALMGRVTISVDTSKNQFSLKLSSVTAADTAVYYCARDGDYDRYTMDYWGQGTLVTVSS VL: DIVMTQSPDSLAVSLGERATINCRASKSVSTSLYSYMHWYQQKPGQPPKLLIYLASNLESGVPDRFSGSGSGTDFTLTISSLQAEDVAVYYCQHSRELPYTFGQGTKLEIK",–,0.018 µg/mL and 0.12 nM,2.44 µg/mL and 16.3 nM,0.052 µg/mL and 0.345 nM
"h7E6-L-TG1-vcMMAD (AcLys-vcMMAD conjugate) (antibody, V domains shown) VH: QVQLQESGPGLVKPSETLSLTCTVSGGSISSYGVHWIRQPPGKGLEWIGVIWTGGSTDYNSALMSRVTISVDTSKNQFSLKLSSVTAADTAVYYCARDGDYDRYTMDYWGQGTLVTVSS VL: DIVMTQSPDSLAVSLGERATINCRASKSVSTSLYSYMHWYQQKPGQPPKLLIYLASNLESGVPDRFSGSGSGTDFTLTISSLQAEDVAVYYCQHSRELPYTFGQGTKLEIK",0.035 µg/mL and 0.232 nM,0.02 µg/mL and 0.132 nM,2.03 µg/mL and 13.5 nM,0.082 µg/mL and 0.549 nM
"h7E6SVG-TG6-AcLys-vc-PABC-MMAD (antibody, human IgG1, V domains shown) VH: QVQLQESGPGLVKPSETLSLTCTVSGGSISSYGVHWIRQPPGKGLEWIGVIWTSGVTDYNSALMGRVTISVDTSKNQFSLKLSSVTAADTAVYYCARDGDYDRYTMDYWGQGTLVTVSS VL: DIVMTQSPDSLAVSLGERATINCRASKSVSTSGYSYMHWYQQKPGQPPKLLIYLASNLESGVPDRFSGSGSGTDFTLTISSLQAEDVAVYYCQHSRELPYTFGQGTKLEIK",0.032 µg/mL and 0.214 nM,0.011 µg/mL and 0.072 nM,–,0.209 µg/mL and 1.39 nM
"h7E6-WT-TG1-vcMMAD (AcLys-vcMMAD conjugate) (antibody, V domains shown) VH: QVQLQESGPGLVKPSETLSLTCTVSGGSISSYGVHWIRQPPGKGLEWIGVIWTGGSTDYNSALMSRVTISVDTSKNQFSLKLSSVTAADTAVYYCARDGDYDRYTMDYWGQGTLVTVSS VL: DIVMTQSPDSLAVSLGERATINCRASKSVSTSGYSYMHWYQQKPGQPPKLLIYLASNLESGVPDRFSGSGSGTDFTLTISSLQAEDVAVYYCQHSRELPYTFGQGTKLEIK",0.025 µg/mL and 0.169 nM,0.022 µg/mL and 0.144 nM,1.96 µg/mL and 13 nM,0.445 µg/mL and 2.97 nM
"h7E6-N-TG1-vcMMAD (AcLys-vcMMAD conjugate) (antibody, V domains shown) VH: QVQLQESGPGLVKPSETLSLTCTVSGGSISSYGVHWIRQPPGKGLEWIGVIWTGGSTDYNSALMSRVTISVDTSKNQFSLKLSSVTAADTAVYYCARDGDYDRYTMDYWGQGTLVTVSS VL: DIVMTQSPDSLAVSLGERATINCRASKSVSTSNYSYMHWYQQKPGQPPKLLIYLASNLESGVPDRFSGSGSGTDFTLTISSLQAEDVAVYYCQHSRELPYTFGQGTKLEIK",–,0.024 µg/mL and 0.163 nM,2.02 µg/mL and 13.5 nM,0.1 µg/mL and 0.668 nM
"h7E6SVG-K222R-LCQ3-AcLys-vc-PABC-MMAD (antibody, human IgG1, V domains shown) VH: QVQLQESGPGLVKPSETLSLTCTVSGGSISSYGVHWIRQPPGKGLEWIGVIWTSGVTDYNSALMGRVTISVDTSKNQFSLKLSSVTAADTAVYYCARDGDYDRYTMDYWGQGTLVTVSS VL: DIVMTQSPDSLAVSLGERATINCRASKSVSTSGYSYMHWYQQKPGQPPKLLIYLASNLESGVPDRFSGSGSGTDFTLTISSLQAEDVAVYYCQHSRELPYTFGQGTKLEIK",0.014 µg/mL and 0.092 nM,0.01 µg/mL and 0.07 nM,–,2.68 µg/mL and 17.9 nM
"6G11-TG1-vcMMAD (AcLys-vcMMAD conjugate) (antibody, V domains shown) VH: QVQLQQPGAELVRPGASVKLSCKASGYTFTSYWINWVKQRPGHGLEWIGNIYPSDSYSNYNQKFKDKATLTVDKSSSTAYMQVSSPTSEDSAVYYCTYGSSFDYWGQGTTVTVSS VL: DILLTQSPAILSVSPGERVSFSCRASQTIGTSIHWYQQRTNGSPRLLIKYASESISGIPSRFSGSGSGTDFTLSINSVESEDIADYYCQQSNSWPFTFGSGTKLEIK",–,0.03 µg/mL and 0.197 nM,–,0.379 µg/mL and 2.52 nM

# Target: T1, Trop-2 on Trop-2 expressing tumor cells
# Assay: cell-based or functional assay
# Remark: another data set of the same source
Binder,"Ab IC50, cell viability (CellTiter-Glo, 96 h), A431 (Trop2 +++) [nM]","Ab IC50, cell viability (CellTiter-Glo, 96 h), BxPC3 (Trop2 ++) [nM]","Ab IC50, cell viability (CellTiter-Glo, 96 h), Calu-3 (Trop2 ++) [nM]","Ab IC50, cell viability (CellTiter-Glo, 96 h), Colo205 (Trop2 +) [nM]","Ab IC50, cell viability (CellTiter-Glo, 96 h), MDA-MB-468 (Trop2 ++) [nM]","Ab IC50, cell viability (CellTiter-Glo, 96 h), NCI-H292 (Trop2 ++) [nM]","Ab IC50, cell viability (CellTiter-Glo, 96 h), NCI-H1650 (Trop2 ++) [nM]","Ab IC50, cell viability (CellTiter-Glo, 96 h), OVCAR3 (Trop2 +++) [nM]","Ab IC50, cell viability (CellTiter-Glo, 96 h), SKBR3 (Trop2 +/++) [nM]"
"h7E6SVG-N297Q/K222R-PEG6MMAD (antibody, V domains shown, N297Q/K222R mutations in the CH2/Hinge domains of heavy chain; conjugated with PEG6-MMAD) VH: QVQLQESGPGLVKPSETLSLTCTVSGGSISSYGVHWIRQPPGKGLEWIGVIWTSGVTDYNSALMGRVTISVDTSKNQFSLKLSSVTAADTAVYYCARDGDYDRYTMDYWGQGTLVTVSS VL: DIVMTQSPDSLAVSLGERATINCRASKSVSTSGYSYMHWYQQKPGQPPKLLIYLASNLESGVPDRFSGSGSGTDFTLTISSLQAEDVAVYYCQHSRELPYTFGQGTKLEIK",0.07,0.03,0.5,21.1,0.19,0.03,0.38,0.98,0.08
"h7E6SVG-LCQ04/K222R-vc0101 (antibody, human IgG1, V domains shown, AcLys-vc-PABC-0101 on tag LCQ04 (SEQ ID NO: 79 as printed) at the C-terminus of the light chain; K222R in the heavy chain constant region) VH: QVQLQESGPGLVKPSETLSLTCTVSGGSISSYGVHWIRQPPGKGLEWIGVIWTSGVTDYNSALMGRVTISVDTSKNQFSLKLSSVTAADTAVYYCARDGDYDRYTMDYWGQGTLVTVSS VL: DIVMTQSPDSLAVSLGERATINCRASKSVSTSGYSYMHWYQQKPGQPPKLLIYLASNLESGVPDRFSGSGSGTDFTLTISSLQAEDVAVYYCQHSRELPYTFGQGTKLEIK",–,0.11,1.51,–,–,1.84,–,–,–
"h7E6SVG-LCQ03/K222R-vc0101 (antibody, human IgG1, V domains shown, AcLys-vc-PABC-0101 on tag LCQ03 (SEQ ID NO: 78) at the C-terminus of the light chain; K222R in the heavy chain constant region) VH: QVQLQESGPGLVKPSETLSLTCTVSGGSISSYGVHWIRQPPGKGLEWIGVIWTSGVTDYNSALMGRVTISVDTSKNQFSLKLSSVTAADTAVYYCARDGDYDRYTMDYWGQGTLVTVSS VL: DIVMTQSPDSLAVSLGERATINCRASKSVSTSGYSYMHWYQQKPGQPPKLLIYLASNLESGVPDRFSGSGSGTDFTLTISSLQAEDVAVYYCQHSRELPYTFGQGTKLEIK",0.03,0.13,–,174,–,–,–,–,–
"h7E6SVG-TG6-vc0101 (antibody, human IgG1, V domains shown, AcLys-vc-PABC-0101 on tag TG6 (LLQGA, SEQ ID NO: 79) at the C-terminus of the heavy chain) VH: QVQLQESGPGLVKPSETLSLTCTVSGGSISSYGVHWIRQPPGKGLEWIGVIWTSGVTDYNSALMGRVTISVDTSKNQFSLKLSSVTAADTAVYYCARDGDYDRYTMDYWGQGTLVTVSS VL: DIVMTQSPDSLAVSLGERATINCRASKSVSTSGYSYMHWYQQKPGQPPKLLIYLASNLESGVPDRFSGSGSGTDFTLTISSLQAEDVAVYYCQHSRELPYTFGQGTKLEIK",0.12,0.32,0.53,32.9,0.77,0.63,1.92,0.56,0.42
